Results from patent US20240287169A1 (AULOS BIOSCIENCE, published 2024).

T1: biotinylated human CD25 (human, UniProt P01589 22-213, limits assumed, biotinylated)
T1 construct: Captured on a streptavidin-coated chip; also called biotinylated hCD25
T1 sequence (looked up): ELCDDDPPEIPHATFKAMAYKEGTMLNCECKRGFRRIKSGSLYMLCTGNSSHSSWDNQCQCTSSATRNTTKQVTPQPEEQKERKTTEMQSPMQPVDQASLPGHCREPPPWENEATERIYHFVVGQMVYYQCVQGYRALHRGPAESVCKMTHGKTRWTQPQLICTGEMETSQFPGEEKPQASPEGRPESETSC

T2: Fc-tagged CD122 (extracellular domain) (human, UniProt P14784 27-240)
T2 construct: extracellular domain; Captured on an anti-human Fc chip; also called Fc tagged hCD122; not shown: Fc tag
T2 sequence (looked up): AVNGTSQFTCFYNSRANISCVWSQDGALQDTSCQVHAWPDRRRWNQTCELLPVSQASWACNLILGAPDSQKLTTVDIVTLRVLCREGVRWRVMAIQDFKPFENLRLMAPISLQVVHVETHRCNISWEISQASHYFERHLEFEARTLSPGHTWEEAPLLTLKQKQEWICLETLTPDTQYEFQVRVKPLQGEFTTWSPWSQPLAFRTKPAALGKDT

T3: Mouse IL-2 (mouse, UniProt P04351 21-169)
T3 construct: Soluble analyte in SPR; also called mIL-2
T3 sequence (looked up): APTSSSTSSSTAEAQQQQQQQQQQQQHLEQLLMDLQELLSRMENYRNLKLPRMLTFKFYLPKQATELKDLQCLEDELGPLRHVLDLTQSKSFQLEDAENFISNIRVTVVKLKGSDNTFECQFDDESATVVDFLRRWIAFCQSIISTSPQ


Legend:
BDG17.054/hIL-2 complex = target: T4, BDG17.054/hIL-2 complex (human, UniProt P60568 21-153); experiment: SPR, antibody captured on CM5 chip and loaded with hIL-2; 1000 nM CD25 injected before CD122 (first set) and after CD122 (second set)
T4 construct: Captured humanized IgG1 saturated with 50 nM hIL-2 on the SPR chip; also called humanized IgG-hIL-2 complex
Procedure: (§1) Subsequently, running buffer was injected for 60 seconds to reach a steady baseline, and then 1000 nM of CD122 was injected for 30 seconds at a flow rate of 30 ul/min. To test CD122 binding, the same experiment was repeated in reverse order, with CD122 injected first flowed by injection of CD25.

biotinylated human CD25 = target: T1, biotinylated human CD25; experiment: SPR, biotinylated hCD25 on the chip, soluble hCD25 injected as a control
BDG17.043/hIL-2 complex = target: T5, BDG17.043/hIL-2 complex (human, UniProt P60568 21-153); experiment: SPR, antibody captured on CM5 chip and loaded with 50 nM hIL-2; 1000 nM CD25 injected before CD122
T5 construct: Captured humanized IgG1 saturated with 50 nM hIL-2 on the SPR chip; also called humanized IgG-hIL-2 complex

BDG17.053/hIL-2 complex = target: T6, BDG17.053/hIL-2 complex (human, UniProt P60568 21-153); experiment: SPR, captured antibody saturated with hIL-2, CD25 injected
T6 construct: Captured humanized IgG1 saturated with 50 nM hIL-2 on the SPR chip; also called humanized IgG-hIL-2 complex

[1] = target: T2, Fc-tagged CD122 (extracellular domain); experiment: SPR, Fc tagged hCD122 captured on a CM5 chip, soluble hCD25 injected
Procedure: Affinity and epitope binding site was assessed using Surface Plasmon Resonance (SPR). […] […] […] Diagrams represent SPR sensorgram traces of complex formation of IL-2R/Cytokine.

[2] = target: T7, BDG17.069 (AU-007)/hIL-2 complex (human, UniProt P60568 21-153); experiment: SPR, AU-007 captured on CM5 chip and loaded with 10nM hIL-2; 1000nM hCD25 injected before hCD122 (1st set) and after hCD122 (2nd set)
T7 construct: On the SPR chip: captured AU-007 saturated with 50 nM hIL-2; In the HEK reporter assay: hIL-2 titrated in the presence of 200 nM AU-007; also called IL2+AU-007; A/IL-2

BDG17.023-hIL-2 complex = target: T8, BDG17.023-hIL-2 complex (human, UniProt P60568 21-153); experiment: SPR, BDG17.023 on CM5 chip saturated with 50 nM hIL-2; 1000 nM CD25 injected after CD122
T8 construct: Non-covalent complex made on the SPR chip: immobilized BDG17.023 IgG1 saturated with 50 nM hIL-2; also called BDG17.023-IL-2 complex

BDG17.038/hIL-2 complex = target: T9, BDG17.038/hIL-2 complex (human, UniProt P60568 21-153); experiment: SPR, antibody captured on CM5 chip and loaded with 50 nM hIL-2; 1000 nM CD25 injected before CD122
T9 construct: Captured humanized IgG1 saturated with 50 nM hIL-2 on the SPR chip; also called humanized IgG-hIL-2 complex
Procedure: as §1

cynomolgus monkey IL-2 = target: T10, cynomolgus monkey IL-2 (cynomolgus monkey, UniProt Q29615 21-154); experiment: SPR, multi-cycle, antibody captured, cynomolgus IL-2 analyte
T10 construct: also called cIL-2
Excerpt: (§2) The SPR analysis was done on Biacore […] (GE healthcare, USA) on CM5 chips (cat:br10005-30, GE healthcare, USA). The chip was crosslinked with primary capture Ab against human IgG (Cat: br-1008-39, GE healthcare, USA) or primary capture antibody against mouse IgG (Cat: BR-1008-38, GE healthcare, USA) to a target of 8000RU. After cross-linking of the primary Ab, the mouse and human tested antibodies were immobilized on the primary Ab to a target of approximately additional 500RU. […] At the end of each cycle the analyte and tested antibody were stripped from the chip using 3M MgCl₂ and new tested Ab was loaded on the chip as described above. When indicated, instead of stripping the antibodies, kinetics was determined by injecting series of analyte concentrations in one cycle by the Single-cycle kinetics method. Binding kinetics were determined by the 1:1 Binding model using the Biacore T200 evaluation software.

Human IL-2 [3] = target: T11, Human IL-2 (human, UniProt P60568 21-153); experiment: SPR, multi-cycle, antibody captured, hIL-2 analyte
T11 construct: Soluble analyte in the SPR experiments; also called hIL-2; recombinant human IL-2
Excerpt: as §2

Human IL-2 [4] = target: T11, Human IL-2; experiment: cell-based or functional assay
Human IL-2 [5] = target: T11, Human IL-2; experiment: SPR (Biacore T200), AU-007 captured on a CM5 chip, h-IL2 as analyte at 0.0625-10 nM, multi-cycle, 1:1 binding model
Procedure: Affinity and epitope binding site was assessed using Surface Plasmon Resonance (SPR). […] Subsequently, soluble hCD25 was injected followed by the injection of soluble hCD122. […] Diagrams represent SPR sensorgram traces of complex formation of IL-2R/Cytokine.
The chip was crosslinked with a human antibody capture kit (BR100839, GE Healthcare, USA) according to the manufacturer's protocol to target 3000-4000 RU. […] Between each cycle, all channels underwent regeneration using 3M MgCl₂. Binding kinetics were determined by the 1:1 Binding model using the Biacore […] evaluation software, version 3.1.

Mouse IL-2 = target: T3, Mouse IL-2; experiment: no assay described; stated in the methods of the LL/2 tumor model

T10 sequence (Q29615 21-154 limits assumed): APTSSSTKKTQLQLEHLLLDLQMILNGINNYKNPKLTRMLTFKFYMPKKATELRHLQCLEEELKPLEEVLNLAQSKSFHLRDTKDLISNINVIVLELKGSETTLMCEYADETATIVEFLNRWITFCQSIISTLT
T11 sequence (P60568 21-153 limits assumed): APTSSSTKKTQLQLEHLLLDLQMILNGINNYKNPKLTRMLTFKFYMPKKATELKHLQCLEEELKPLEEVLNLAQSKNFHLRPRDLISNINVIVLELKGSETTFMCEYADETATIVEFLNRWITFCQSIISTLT
T6 sequence (P60568 21-153 limits assumed, one chain of several): as the sequence (P60568 21-153 limits assumed) above
T4 sequence (P60568 21-153 limits assumed, one chain of several): as the sequence (P60568 21-153 limits assumed) above
T9 sequence (P60568 21-153 limits assumed, one chain of several): as the sequence (P60568 21-153 limits assumed) above
T8 sequence (P60568 21-153 limits assumed, one chain of several): as the sequence (P60568 21-153 limits assumed) above
T7 sequence (P60568 21-153 limits assumed, one chain of several): as the sequence (P60568 21-153 limits assumed) above
T5 sequence (P60568 21-153 limits assumed, one chain of several): as the sequence (P60568 21-153 limits assumed) above

| binding result (BDG17.054/hIL-2 complex) | binding result (biotinylated human CD25) | binding result (BDG17.043/hIL-2 complex) | binding result (BDG17.053/hIL-2 complex) | binding result [1] | binding result [2] | binding result (BDG17.023-hIL-2 complex) | binding result (BDG17.038/hIL-2 complex) | Kd (cynomolgus monkey IL-2) | koff (cynomolgus monkey IL-2) | kon (cynomolgus monkey IL-2) | Kd (Human IL-2 [3]) | koff (Human IL-2 [3]) | kon (Human IL-2 [3]) | IC50 (read off the curve) (%pSTAT5 in CD4+ Tregs of hPBMC stimulated with hIL-2) (Human IL-2 [4]) | Kd (Human IL-2 [5]) | koff (Human IL-2 [5]) | kon (Human IL-2 [5]) | binding result (Mouse IL-2) | Binder |
| --- | --- | --- | --- | --- | --- | --- | --- | --- | --- | --- | --- | --- | --- | --- | --- | --- | --- | --- | --- |
| no binding (tested: 1000 nM) | no binding (tested: 1 uM) | no binding (tested: 1000 nM) | no binding (tested: 1000 nM) | no binding (tested: 1 uM) | no binding (tested: 1000 nM) | no binding (tested: 1000 nM) | no binding (tested: 1000 nM) |  |  |  |  |  |  |  |  |  |  |  | human CD25 (soluble) (receptor, UniProt P01589 22-213, looked up, Injected as soluble analyte at 1000 nM / 1 uM; also called hCD25; IL-2Rα) ELCDDDPPEIPHATFKAMAYKEGTMLNCECKRGFRRIKSGSLYMLCTGNSSHSSWDNQCQCTSSATRNTTKQVTPQPEEQKERKTTEMQSPMQPVDQASLPGHCREPPPWENEATERIYHFVVGQMVYYQCVQGYRALHRGPAESVCKMTHGKTRWTQPQLICTGEMETSQFPGEEKPQASPEGRPESETSC |
|  |  |  |  |  |  |  |  | 11.7 pM | 0.000584 s⁻¹ | 4.98e+07 M⁻¹ s⁻¹ | 10.8 pM | 0.000487 s⁻¹ | 4.5e+07 M⁻¹ s⁻¹ | ~1000 pM | 10.8 pM | 0.000487 s⁻¹ | 4.5e+07 M⁻¹ s⁻¹ | no binding | BDG17.069 (AU-007) (antibody, human IgG1, kappa, L234A L235A, V domains shown, Human IgG1-LALA) VH: QVQLVQSGAEVKKPGSSVKVSCKASGYSITDDLIHWVRQAPGQGLEWMGWIDPEDGETNYAQKFQGRVTLTADTSTSTAYMELSSLRSEDTAVYYCARSLDSTWIYPFAYWGQGTLVTVSS VL: DIVMTQSPDSLAVSLGERATINCKSSQSLLRRGNQKNHLAWYQQKPGQPPKLLIYDASTGQSGVPDRFSGSGSGTDFTLTISSLQAEDVAVYYCLQSYITPPTFGAGTKVEIKR |
